± gives the standard deviation of the averaged measurements.
Assay: total protein half-life in vivo (active degradation + dilution); higher = more stable protein
[1] = E. coli NCM3722 delta-smpB, growth: N-lim chemostat, doubling time 6 h
[2] = wild type E. coli NCM3722, growth: C-lim chemostat, doubling time 3 h
[3] = wild type E. coli NCM3722, growth: C-lim chemostat, doubling time 6 h
[4] = wild type E. coli NCM3722, growth: C-lim chemostat, doubling time 12 h
[5] = wild type E. coli NCM3722, growth: N-lim chemostat, doubling time 12 h
[6] = wild type E. coli NCM3722, growth: P-lim chemostat, doubling time 6 h
[7] = wild type E. coli NCM3722, growth: P-lim chemostat, doubling time 12 h
[8] = E. coli NCM3722 delta-clpP delta-lon delta-hslV, growth: N-lim chemostat, doubling time 6 h
[9] = E. coli NCM3722 delta-clpP, growth: N-lim chemostat, doubling time 6 h
[10] = E. coli NCM3722 delta-hslV, growth: N-lim chemostat, doubling time 6 h
[11] = E. coli NCM3722 delta-lon, growth: N-lim chemostat, doubling time 6 h
[12] = wild type E. coli NCM3722, growth: N-lim chemostat, doubling time 6 h

Row | Sequence | total protein half-life in vivo [1] [h] | total protein half-life in vivo [2] [h] | total protein half-life in vivo [3] [h] | total protein half-life in vivo [4] [h] | total protein half-life in vivo [5] [h] | total protein half-life in vivo [6] [h] | total protein half-life in vivo [7] [h] | total protein half-life in vivo [8] [h] | total protein half-life in vivo [9] [h] | total protein half-life in vivo [10] [h] | total protein half-life in vivo [11] [h] | total protein half-life in vivo [12] [h]
1 | MITHFRQAIEETLPWLSSFGADPAGGMTRLLYSPEWLETQQQFKKRMAASGLETRFDEVGNLYGRLNGTEYPQEVVLSGSHIDTVVNGGNLDGQFGALAAWLAIDWLKTQYGAPLRTVEVVAMAEEEGSRFPYVFWGSKNIFGLANPDDVRNICDAKGNSFVDAMKACGFTLPNAPLTPRQDIKAFVELHIEQGCVLESNGQSIGVVNAIVGQRRYTVTLNGESNHAGTTPMGYRRDTVYAFSRICHQSVEKAKRMGDPLVLTFGKVEPRPNTVNVVPGKTTFTIDCRHTDAAVLRDFTQQLENDMRAICDEMDIGIDIDLWMDEEPVPMNKELVATLTELCEREKLNYRVMHSGAGHDAQIFAPRVPTCMIFIPSINGISHNPAERTNITDLAEGVKTLALMLYQLAWQK | 2.26 ± 0.15 | 2.76 ± 0.21 | 3.86 ± 0.11 | 7.08 ± 1.6 | 3.88 | 3.54 | 6.32 | – | – | – | – | –
2 | MITIDGNGAVASVAFRTSEVIAIYPITPSSTMAEQADAWAGNGLKNVWGDTPRVVEMQSEAGAIATVHGALQTGALSTSFTSSQGLLLMIPTLYKLAGELTPFVLHVAARTVATHALSIFGDHSDVMAVRQTGCAMLCAANVQEAQDFALISQIATLKSRVPFIHFFDGFRTSHEINKIVPLADDTILDLMPQVEIDAHRARALNPEHPVIRGTSANPDTYFQSREATNPWYNAVYDHVEQAMNDFSAATGRQYQPFEYYGHPQAERVIILMGSAIGTCEEVVDELLTRGEKVGVLKVRLYRPFSAKHLLQALPGSVRSVAVLDRTKEPGAQAEPLYLDVMTALAEAFNNGERETLPRVIGGRYGLSSKEFGPDCVLAVFAELNAAKPKARFTVGIYDDVTNLSLPLPENTLPNSAKLEALFYGLGSDGSVSATKNNIKIIGNSTPWYAQGYFVYDSKKAGGLTVSHLRVSEQPIRSAYLISQADFVGCHQLQFIDKYQMAERLKPGGIFLLNTPYSADEVWSRLPQEVQAVLNQKKARFYVINAAKIARECGLAARINTVMQMAFFHLTQILPGDSALAELQGAIAKSYSSKGQDLVERNWQALALARESVEEVPLQPVNPHSANRPPVVSDAAPDFVKTVTAAMLAGLGDALPVSALPPDGTWPMGTTRWEKRNIAEEIPIWKEELCTQCNHCVAACPHSAIRAKVVPPEAMENAPASLHSLDVKSRDMRGQKYVLQVAPEDCTGCNLCVEVCPAKDRQNPEIKAINMMSRLEHVEEEKINYDFFLNLPEIDRSKLERIDIRTSQLITPLFEYSGACSGCGETPYIKLLTQLYGDRMLIANATGCSSIYGGNLPSTPYTTDANGRGPAWANSLFEDNAEFGLGFRLTVDQHRVRVLRLLDQFADKIPAELLTALKSDATPEVRREQVAALRQQLNDVAEAHELLRDADALVEKSIWLIGGDGWAYDIGFGGLDHVLSLTENVNILVLDTQCYSNTGGQASKATPLGAVTKFGEHGKRKARKDLGVSMMMYGHVYVAQISLGAQLNQTVKAIQEAEAYPGPSLIIAYSPCEEHGYDLALSHDQMRQLTATGFWPLYRFDPRRADEGKLPLALDSRPPSEAPEETLLHEQRFRRLNSQQPEVAEQLWKDAAADLQKRYDFLAQMAGKAEKSNTD | 2.17 ± 0.18 | 2.14 ± 0.34 | 3.35 ± 0.38 | 5.06 ± 0.26 | 3.64 ± 0.31 | 3.77 ± 0.17 | 6.3 ± 0.33 | 4.62 ± 0.54 | 3.16 ± 0.26 | 2.72 ± 0.21 | 2.87 ± 0.075 | 2.57 ± 0.12
3 | MITIPITLRMLIAKYLCLLKPFWLRKNNKTSVLLIIIILAMILGVVKIQVWLNDWNNDFFNALSQKETDKLWQLVLWFPALLGIFVLISVNKTWLIKLLTIRWREWLTDYYLNRWFADKNYYFTQIYGEHKNTDNPDQRIAEDILLLISKTLSLSFGFIQSLSMLITFTVILWESAGTLSFTVGGTEWNIQGYMVYTVVLIVIGGTLFTHKVGKRIRPLNVEKQRSEATFRTNLVQHNKQAELIALSNAESLQRQELSDNFHTIKENWHRLMNRQRWLDYWQNIYSRSLSVLPYFLLLPQFISGQINLGGLMKSRQAFMLVSNNLSWFIYKYDELAELAAVIDRLYEFHQLTEQRPTNKPKNCQHAVQVADASIRTPDNKIILENLNFHVSPGKWLLLKGYSGAGKTTLLKTLSHCWPWFKGDISSPADSWYVSQTPLIKTGLLKEIICKALPLPVDDKSLSEVLHQVGLGKLAARIHDHDRWGDILSSGEKQRIALARLILRRPKWIFLDETTSHLEEQEAIRLLRLVREKLPTSGVIMVTHQPGVWNLADDICDISAVL | – | 3.2 ± 0.6 | 5.29 ± 0.53 | 11.5 ± 1.1 | – | – | – | – | – | – | – | –
4 | MITRIPRSSFSANINNTAQTNEHQTLSELFYKELEDKFSGKELATPLLKSFSENCRQNGRHIFSNKDFVIKFSTSVLQADKKEITIINKNENTTLTQTIAPIFEKYLMEILPQRSDTLDKQELNLKSDRKEKEFPRIKLNGQCYFPGRPQNRIVCRHIAAQYINDIYQNVDYKPHQDDYSSAEKFLTHFNKKCKNQTLALVSSRPEGRCVAACGDFGLVMKAYFDKMESNGISVMAAILLVDNHALTVRLRIKNTTEGCTHYVVSVYDPNVTNDKIRIMSESKENIKHYSLMDFMNVDYSLLKWSNDHVINQSVAIIPALPKEQLLMLKGSVDEITPPLSPATMNLLMAIGQNHQLTQLMIQLQKMPELHRTEMLTAYNSINLPGLYLAINYGNADIVETIFNSLSETGYEGLLSKKNLMHILEAKDKNGFSGLFLAISRKDKNVVTSILNALPKLAATHHLDNEQVYKFLSAKNRTSSHVLYHVMANGDADMLKIVLNALPLLIRTCHLTKEQVLDLLKAKDFYGCPGLYLAMQNGHSDIVKVILEALPSLAQEINISASDIVDLLTAKSLARDTGLFMAMQRGHMNVINTIFNALPTLFNTFKFDKKNMKPLLLANNSNEYPGLFSAIQHKQQNVVETVYLALSDHARLFGFTAEDIMDFWQHKAPQKYSAFELAFEFGHRVIAELILNTLNKMAESFGFTDNPRYIAEKNYMEALLKKASPHTVR | – | – | 5.49 | – | – | – | – | – | – | – | – | –
5 | MITYHDAFAKANHYLDDADLPVVITLHGRFSQGWYFCFEAREFLETGDEAARLAGNAPFIIDKDSGEIHSLGTAKPLEEYLQDYEIKKATFGLP | – | – | – | – | – | – | – | 4.62 ± 0.3 | – | – | – | –
6 | MIVKKLTLPKDFLWGGAVAAHQVEGGWNKGGKGPSICDVLTGGAHGVPREITKEVLPGKYYPNHEAVDFYGHYKEDIKLFAEMGFKCFRTSIAWTRIFPKGDEAQPNEEGLKFYDDMFDELLKYNIEPVITLSHFEMPLHLVQQYGSWTNRKVVDFFVRFAEVVFERYKHKVKYWMTFNEINNQRNWRAPLFGYCCSGVVYTEHENPEETMYQVLHHQFVASALAVKAARRINPEMKVGCMLAMVPLYPYSCNPDDVMFAQESMRERYVFTDVQLRGYYPSYVLNEWERRGFNIKMEDGDLDVLREGTCDYLGFSYYMTNAVKAEGGTGDAISGFEGSVPNPYVKASDWGWQIDPVGLRYALCELYERYQRPLFIVENGFGAYDKVEEDGSINDDYRIDYLRAHIEEMKKAVTYDGVDLMGYTPWGCIDCVSFTTGQYSKRYGFIYVNKHDDGTGDMSRSRKKSFNWYKEVIASNGEKL | 4.985 ± 0.0067 | 3.08 ± 0.12 | 5.89 ± 0.32 | 10.03 ± 0.031 | 9.46 ± 0.4 | 6.17 ± 0.47 | 11.1 ± 0.41 | 5.79 ± 0.69 | 5.12 ± 0.34 | 5.44 ± 0.26 | 5.46 ± 0.0062 | 4.85 ± 0.075
7 | MIVLPRRLSDEVADRVRALIDEKNLEAGMKLPAERQLAMQLGVSRNSLREALAKLVSEGVLLSRRGGGTFIRWRHDTWSEQNIVQPLKTLMADDPDYSFDILEARYAIEASTAWHAAMRATPGDKEKIQLCFEATLSEDPDIASQADVRFHLAIAEASHNIVLLQTMRGFFDVLQSSVKHSRQRMYLVPPVFSQLTEQHQAVIDAIFAGDADGARKAMMAHLSFVHTTMKRFDEDQARHARITRLPGEHNEHSREKNA [P0ACL7] | 2.04 | 1.28 | 2.86 ± 0.55 | 2.72 | 2.87 | – | – | 5.57 | 2.72 | – | – | –
8 | MIVRILLLFIALFTFGVQAQAIKESYAFAVLGEPRYAFNFNHFDYVNPAAPKGGQITLSALGTFDNFNRYALRGNPGARTEQLYDTLFTTSDDEPGSYYPLIAESARYADDYSWVEVAINPRARFHDGSPITARDVEFTFQKFMTEGVPQFRLVYKGTTVKAIAPLTVRIELAKPGKEDMLSLFSLPVFPEKYWKDHKLSDPLATPPLASGPYRVTSWKMGQNIVYSRVKDYWAANLPVNRGRWNFDTIRYDYYLDDNVAFEAFKAGAFDLRMENDAKNWATRYTGKNFDKKYIIKDEQKNESAQDTRWLAFNIQRPVFSDRRVREAITLAFDFEWMNKALFYNAWSRTNSYFQNTEYAARNYPDAAELVLLAPMKKDLPSEVFTQIYQPPVSKGDGYDRDNLLKADKLLNEAGWVLKGQQRVNATTGQPLSFELLLPASSNSQWVLPFQHSLQRLGINMDIRKVDNSQITNRMRSRDYDMMPRVWRAMPWPSSDLQISWSSEYINSTYNAPGVQSPVIDSLINQIIAAQGNKEKLLPLGRALDRVLTWNYYMLPMWYMAEDRLAWWDKFSQPAVRPIYSLGIDTWWYDVNKAAKLPSASKQGE | 5.92 ± 0.24 | 3.0824 ± 5.7e-05 | 6.076 ± 0.038 | 13.3 ± 2.8 | 12.8 ± 0.89 | 6.46 ± 0.14 | 12 ± 1.5 | 6.04 ± 0.17 | 6.38 ± 1.6 | 5.79 ± 0.79 | – | 6.19 ± 0.39
9 | MIVRPQQHWLRRIFVWHGSVLSKISSRLLLNFLFSIAVIFMLPWYTHLGIKFTLAPFSILGVAIAIFLGFRNNAGYARYVEARKLWGQLMIASRSLLREVKTTLPDSASVREFARLQIAFAHCLRMTLRKQPQAEVLAHYLKTEDLQRVLASNSPANRILLIMGEWLAVQRRNGQLSDILFISLNDRLNDISAVLAGCERIAYTPIPFAYTLILHRTVYLFCIMLPFALVVDLHYMTPFISVLISYTFISLDCLAEELEDPFGTENNDLPLDAICNAIEIDLLQMNDEAEIPAKILPDRHYQLT | – | – | – | – | 8.65 | 5.86 ± 0.6 | 11.5 ± 0.23 | 6.05 | 5.43 | 5.52 | – | 3.6
10 | MIWKRHLTLDELNATSDNTMVAHLGIVYTRLGDDVLEAEMPVDTRTHQPFGLLHGGASAALAETLGSMAGFMMTRDGQCVVGTELNATHHRPVSEGKVRGVCQPLHLGRQNQSWEIVVFDEQGRRCCTCRLGTAVLG [P0A8Y8] | – | – | – | – | – | – | – | 6.69 | – | – | – | –
11 | MIWKRKITLEALNAMGEGNMVGFLDIRFEHIGDDTLEATMPVDSRTKQPFGLLHGGASVVLAESIGSVAGYLCTEGEQKVVGLEINANHVRSAREGRVRGVCKPLHLGSRHQVWQIEIFDEKGRLCCSSRLTTAIL | 3.73 ± 0.23 | 2.75 ± 0.11 | – | – | 9.08 ± 3.8 | 6.54 | 10.7 | 4.78 | 3.39 | 4.22 | 4.14 | 4.23
12 | MIYLRKANERGHANHGWLDSWHTFSFANYYDPNFMGFSALRVINDDVIEAGQGFGTHPHKDMEILTYVLEGTVEHQDSMGNKEQVPAGEFQIMSAGTGIRHSEYNPSSTERLHLYQIWIMPEENGITPRYEQRRFDAVQGKQLVLSPDARDGSLKVHQDMELYRWALLKDEQSVHQIAAERRVWIQVVKGNVTINGVKASTSDGLAIWDEQAISIHADSDSEVLLFDLPPV | 4.36 ± 0.26 | 2.84 ± 0.096 | 5.31 ± 0.29 | 8.6 ± 2.5 | 7.3 ± 0.36 | 5.54 ± 0.17 | 11.6 ± 0.069 | – | 4.3 ± 0.072 | 4.52 ± 0.68 | 4.67 ± 0.054 | 4.51 ± 0.2
